Patent publication US20260263595A1 (BETH ISRAEL DEACONESS MEDICAL CENTER, published 2026)

Biological target: T1, human CD40 on human B cells (CD20+ cells of human PBMCs) (human, UniProt P25942 21-277)
T1 construct: whole, on cells; also called native CD40 on human blood B cells; human CD20+ B cells
Assay: flow cytometry on human PBMCs, CD20+ gate (FIG. 2A)
Protocol: The CD40 antibody 2C10 was characterized with respect to its ability to affect B cell activation both using rhesus monkey and human peripheral blood mononuclear cells (PBMCs). CD20 expression was chosen as being an indicator of B cells, and expression of CD23, CD80, and CD86 is associated with B cell activation. 2C10 was first assessed for its ability to bind to […]. Rhesus or human PBMCs were incubated with fluorochrome-conjugated 2C10 and an anti-CD20 antibody. Flow cytometric analysis was used to confirm the binding of 2C10 to human and rhesus CD20+ B cells (FIG. 2A). In another set of experiments, PBMCs from either rhesus monkey or humans were cultured either in the presence or absence of CD154⁺ Jurkat D1.1 cells, an immortalized T lymphocyte cell line. Activation of B cells was determined by measuring expression of three markers (CD23, CD80, and CD86) in CD20⁺ cells present in the PBMCs.

T1 sequence (P25942 21-277): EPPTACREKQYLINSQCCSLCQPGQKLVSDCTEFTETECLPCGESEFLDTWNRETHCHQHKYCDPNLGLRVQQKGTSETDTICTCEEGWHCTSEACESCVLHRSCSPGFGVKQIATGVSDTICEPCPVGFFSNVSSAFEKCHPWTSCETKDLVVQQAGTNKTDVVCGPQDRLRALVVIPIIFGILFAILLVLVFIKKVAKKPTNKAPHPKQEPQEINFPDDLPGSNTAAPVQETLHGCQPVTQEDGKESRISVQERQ

binding result: binds
B1: anti-CD40 antibody 2C10 (antibody, mouse IgG1, V domains shown)
VH: QVQLQQSGAELAKPGASVKMSCKASGYTFTNYWMHWVKQRPGQGLEWIGYINPSNDYTKYNQKFKDKATLTADKSSNTAYMQLGSLTSEDSAVYYCARQGFPYWGQGTLVTVS
VL: QIVLTQSPAIMSASPGEKVTMTCSASSSVSYMHWYHQRSGTSPKRWIYDTSKLASGVPARFSGSGSGTSYSLTISSMEAEDAATYYCHQLSSDPFTFGSGTKLEIK
notes: also called 2C10 antibody; APC-conjugated 2C10
